The record followed here is US20220062373A1 (published 2022).

First the molecules themselves.
B2: Recombinant human CD206 (MRC1/CD206) (receptor, UniProt P22897 19-1383, looked up)
chain: LLDTRQFLIYNEDHKRCVDAVSPSAVQTAACNQDAESQKFRWVSESQIMSVAFKLCLGVPSKTDWVAITLYACDSKSEFQKWECKNDTLLGIKGEDLFFNYGNRQEKNIMLYKGSGLWSRWKIYGTTDNLCSRGYEAMYTLLGNANGATCAFPFKFENKWYADCTSAGRSDGWLWCGTTTDYDTDKLFGYCPLKFEGSESLWNKDPLTSVSYQINSKSALTWHQARKSCQQQNAELLSITEIHEQTYLTGLTSSLTSGLWIGLNSLSFNSGWQWSDRSPFRYLNWLPGSPSAEPGKSCVSLNPGKNAKWENLECVQKLGYICKKGNTTLNSFVIPSESDVPTHCPSQWWPYAGHCYKIHRDEKKIQRDALTTCRKEGGDLTSIHTIEELDFIISQLGYEPNDELWIGLNDIKIQMYFEWSDGTPVTFTKWLRGEPSHENNRQEDCVVMKGKDGYWADRGCEWPLGYICKMKSRSQGPEIVEVEKGCRKGWKKHHFYCYMIGHTLSTFAEANQTCNNENAYLTTIEDRYEQAFLTSFVGLRPEKYFWTGLSDIQTKGTFQWTIEEEVRFTHWNSDMPGRKPGCVAMRTGIAGGLWDVLKCDEKAKFVCKHWAEGVTHPPKPTTTPEPKCPEDWGASSRTSLCFKLYAKGKHEKKTWFESRDFCRALGGDLASINNKEEQQTIWRLITASGSYHKLFWLGLTYGSPSEGFTWSDGSPVSYENWAYGEPNNYQNVEYCGELKGDPTMSWNDINCEHLNNWICQIQKGQTPKPEPTPAPQDNPPVTEDGWVIYKDYQYYFSKEKETMDNARAFCKRNFGDLVSIQSESEKKFLWKYVNRNDAQSAYFIGLLISLDKKFAWMDGSKVDYVSWATGEPNFANEDENCVTMYSNSGFWNDINCGYPNAFICQRHNSSINATTVMPTMPSVPSGCKEGWNFYSNKCFKIFGFMEEERKNWQEARKACIGFGGNLVSIQNEKEQAFLTYHMKDSTFSAWTGLNDVNSEHTFLWTDGRGVHYTNWGKGYPGGRRSSLSYEDADCVVIIGGASNEAGKWMDDTCDSKRGYICQTRSDPSLTNPPATIQTDGFVKYGKSSYSLMRQKFQWHEAETYCKLHNSLIASILDPYSNAFAWLQMETSNERVWIALNSNLTDNQYTWTDKWRVRYTNWAADEPKLKSACVYLDLDGYWKTAHCNESFYFLCKRSDEIPATEPPQLPGRCPESDHTAWIPFHGHCYYIESSYTRNWGQASLECLRMGSSLVSIESAAESSFLSYRVEPLKSKTNFWIGLFRNVEGTWLWINNSPVSFVNWNTGDPSGERNDCVALHASSGFWSNIHCSSYKGYICKRPKIIDAKPTHELLTTKADTRKMDPSK
notes: Bought protein; also called recombinant MRC1/CD206; rMRC1/CD206

The target in series [1] is B2. The series is described as follows: microscale thermophoresis, label-free, recombinant CD206. The procedure:
Specifically, two-fold serial dilutions of the peptides were prepared in PBS and incubated with the same volume of 250 nM recombinant human and mouse CD206 in PBS. After a 5 min incubation at room temperature (RT), measurements were carried out in standard capillaries using a Monolith NT. Labelfree instrument (Nanotemper Technologies) with 40% LED excitation power, 40% IR-laser power, and laser on and off times of 30 s and 5 s, respectively. KD values were calculated by fitting the T-Jump signal of the thermograph using MOAffinity analysis software (Nanotemper Technologies).

Series [2] deals with T1, Endogenous murine CD206 on M2-polarized bone marrow-derived macrophages (mouse, UniProt Q61830 20-1456).
T1 construct: whole, on cells; also called endogenous CD206 in murine macrophages; CD206 of M2 BMDMs
T1 sequence (looked up): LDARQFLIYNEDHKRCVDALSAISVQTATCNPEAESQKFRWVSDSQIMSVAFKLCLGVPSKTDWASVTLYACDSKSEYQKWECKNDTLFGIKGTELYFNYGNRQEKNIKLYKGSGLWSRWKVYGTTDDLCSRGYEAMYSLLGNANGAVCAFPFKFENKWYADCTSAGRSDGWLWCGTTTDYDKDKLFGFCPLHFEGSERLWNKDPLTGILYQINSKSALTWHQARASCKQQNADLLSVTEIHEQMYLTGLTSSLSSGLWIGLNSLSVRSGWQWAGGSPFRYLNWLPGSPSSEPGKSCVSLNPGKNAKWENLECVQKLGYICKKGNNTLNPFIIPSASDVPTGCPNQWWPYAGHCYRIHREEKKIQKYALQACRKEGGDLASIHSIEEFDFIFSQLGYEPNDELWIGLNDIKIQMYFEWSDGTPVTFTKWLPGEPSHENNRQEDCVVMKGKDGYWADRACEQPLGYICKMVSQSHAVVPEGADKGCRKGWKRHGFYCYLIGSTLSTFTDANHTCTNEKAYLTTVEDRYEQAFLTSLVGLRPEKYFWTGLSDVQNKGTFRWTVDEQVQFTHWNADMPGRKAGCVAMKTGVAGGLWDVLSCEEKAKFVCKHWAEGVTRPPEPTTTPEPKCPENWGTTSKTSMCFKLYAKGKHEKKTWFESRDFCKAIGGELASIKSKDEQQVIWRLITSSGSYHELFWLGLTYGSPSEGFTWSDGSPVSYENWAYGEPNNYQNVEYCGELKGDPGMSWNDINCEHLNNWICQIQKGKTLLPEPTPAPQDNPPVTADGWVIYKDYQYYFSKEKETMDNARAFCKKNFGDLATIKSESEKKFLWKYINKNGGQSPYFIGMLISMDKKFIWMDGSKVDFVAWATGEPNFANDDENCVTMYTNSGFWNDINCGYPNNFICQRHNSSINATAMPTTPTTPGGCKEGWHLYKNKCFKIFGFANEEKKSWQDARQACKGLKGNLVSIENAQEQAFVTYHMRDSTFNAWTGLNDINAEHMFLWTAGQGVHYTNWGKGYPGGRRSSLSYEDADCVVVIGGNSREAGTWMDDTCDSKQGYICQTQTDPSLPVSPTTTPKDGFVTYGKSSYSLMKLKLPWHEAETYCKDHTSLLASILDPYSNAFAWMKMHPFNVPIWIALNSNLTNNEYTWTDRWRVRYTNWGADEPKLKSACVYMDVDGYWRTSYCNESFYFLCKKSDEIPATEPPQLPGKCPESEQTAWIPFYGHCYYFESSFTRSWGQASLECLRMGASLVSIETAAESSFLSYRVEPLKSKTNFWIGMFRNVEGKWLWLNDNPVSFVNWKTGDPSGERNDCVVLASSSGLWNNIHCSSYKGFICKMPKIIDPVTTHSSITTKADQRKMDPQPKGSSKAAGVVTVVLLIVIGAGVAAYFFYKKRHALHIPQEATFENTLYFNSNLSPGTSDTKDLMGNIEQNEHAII
The series is described as follows: cellular thermal shift assay (CETSA) on M2-polarized macrophages.
Procedure: The target engagement of the peptides in macrophages was assessed using the cellular thermal shift assay (CETSA) following the Jafari et al. protocol with minor modifications. […] After treatment, cells were collected by centrifugation for 5 min at 300×g and re-suspended in 600 μL DMEM. […] Samples were centrifuged at 20,000×g for 20 min at 4° C., and the supernatant was subsequently analyzed by western blot using 12-230 kDa Peggy Sue separation module (ProteinSimple, Cat #, SM-S001) and Peggy Sue instrument (Protein Simple) with following settings: electrophoresis 250 volts for 45 min; blocking, 23 min; primary antibody, 30 min; secondary antibody, 30 min. Quantitative analysis of CD206 level was performed using anti-CD206 antibody at 1:70 concentration multiplexed with anti-SOD1 antibody at 1:300 dilution, as internal control for normalization, and Compass software (ProteinSimple, San Jose, Calif.).

Series [3] deals with the molecule itself. The series is described as follows: small-angle X-ray scattering (SAXS), self-association.
Procedure: SAXS data was collected at the 12ID-B beamline of the Advanced Photon Source (APS), Argonne National Laboratory, Lemont, Ill. […] Concentration series measurements for CD206 in buffer containing 50 mM Hepes, 100 mM NaCl, 1 mM DTT were carried out to extrapolate the data to infinite dilution for removing the scattering contribution due to interparticle interactions (concentration effect). Thirty 2D-image frames were recorded for sample solution and their matching buffer using a flow cell, with the exposure time of 0.75-1 sec to minimize radiation damage and to yield optimal signal-to-noise ratio. The 2D images were reduced to 1D scattering profiles and averaged using the Matlab software package at the beamlines.
The buffer background subtraction and intensity extrapolation to infinite dilution were carried out using MatLab script developed by 12-ID-B beamline. The radius of gyration (Rg) was generated from Guinier plot in the range of qRg<1.3. For comparison, Rg was also calculated in real and reciprocal spaces using program GNOM (https://www.embl-hamburg.de/biosaxs/manuals/gnom.html). The pair-distance distribution function P(r) and maximum dimension (Dmax) were also calculated using GNOM. […] Based on the silico models of CD206 monomer derived from iTASSER, the fit of dimer of CD206 to SAXS experimental data were calculated using the program CORAL.

B1: RP-426 (peptide)
peptide: KARKAAKRAF
notes: Designed as a control to test the impact of hydrophobicity on activity
As for B1, in series [1], the Kd was 85 µM. Further, the binding result in series [2] is on record as “no binding (tested: 100 µM)”. Turning to B2, the binding result in series [3] is listed as “binds”.
